Measurements: patent publication US10556007B2, “Antibody which binds Lrg1 and methods of use” (UCL Business PLC, priority 2015, dated 2020)
Values joined by “and” are separate entries in the source; they are usually repeats but may differ in a detail not shown here. Equal values may be shown once. “Also recorded” adds a separate entry of the source.

How the values were obtained:
[1] = test system: Lrg1 (rhLrg1 and liver extracts from mouse, rat, rabbit, monkey, dog and cat); test: Species cross-reactivity ELISA on liver extracts; assay type: binding; settings: mAb at 100 nM
Description: Species cross-reactivity was carried out by ELISA in a protocol in which multiwall plates were coated with rhLrg1, and liver extracts from mouse, rat, rabbit, monkey, dog and cat.

[2] = target: T1, human Lrg1 (Homo sapiens, UniProt P02750); test: Biacore affinity and binding kinetics, human Lrg1
T1 sequence (P02750 36-347): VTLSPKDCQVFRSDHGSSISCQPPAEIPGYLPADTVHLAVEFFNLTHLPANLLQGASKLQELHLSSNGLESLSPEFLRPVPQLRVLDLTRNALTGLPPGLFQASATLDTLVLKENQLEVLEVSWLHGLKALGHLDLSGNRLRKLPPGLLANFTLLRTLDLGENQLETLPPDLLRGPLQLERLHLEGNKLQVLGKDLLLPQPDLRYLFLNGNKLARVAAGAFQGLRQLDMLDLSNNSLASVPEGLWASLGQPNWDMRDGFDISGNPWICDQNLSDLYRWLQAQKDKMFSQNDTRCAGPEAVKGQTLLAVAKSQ
Description: Biacore was used to measure the binding affinity, association and dissociation constants of the antibodies to human Lrg1. Human Lrg1 was immobilized on the Biacore chip, and mAbs passed across at concentrations ranging from 20-100 nM. A cut off binding affinity value of 2 nM was used to isolate possible candidate antibodies for further investigation.
The four lead mAbs were examined using Biacore, in experiments in which human Lrg1 was immobilized on the chip, and mAbs passed across at concentrations ranging from 20-100 nM. The Table below summarises the kinetic data.

[3] = test system: explanted E16.5 mouse metatarsals; test: Mouse metatarsal angiogenesis assay (ex vivo); assay type: cell-based; settings: mAbs at 100 nM, 12 days of culture
Description: In this assay the function-blocking activity of the mAbs was tested, using explanted E16.5 mouse metatarsals. Vessels grow spontaneously from the embryonic bones to form a 2D-network that can be readily quantified with regard to, for example, vessel length, calibre and branch points. In the mouse metatarsal assay mAbs were added at 100 nM to the culture medium during 12 days of culture, with replenishment of media and mAbs every two days. At the end of the experiment samples were fixed and immunostained for Platelet endothelial cell adhesion molecule (PECAM), and vascular networks were quantified using Imaris software, with normalization to a phosphate buffered saline (PBS) control.

[4] = target: T1, human Lrg1; test: Western blot specificity for human Lrg1; assay type: binding; settings: conditioned medium from MDA-MB cells, human vitreous, whole human serum
Description: To evaluate the specificity of the lead mAbs for human Lrg1 western blot analysis of each was performed against conditioned medium from the MDA-MB human tumour cell line, samples of human vitreous humour, and samples of whole human serum.

[5] = test system: B16/F0 tumours; test: B16/F0 subcutaneous tumour vasculature; assay type: in vivo, mouse
Description: The adherent cell line B16/F0 was harvested and single-cell suspensions of 1×10^6 cells in 100 μl PBS was injected subcutaneously into the lower back of C57B1/6 mice. Tumours were measured every other day with a caliper and volume was calculated using the formula: V=(4/3)×π×(L/2)×(W/2)×(H/2). The mice were sacrificed at defined time intervals or after the tumors reached 2000 mm^3. Treatment with 15C4 or IgG was started after three days at 50 mg/kg by intraperitoneal injections, and repeated every 3 days. Vessels were identified by CD31 immunohistochemistry on tumour sections (FIG. 11).

[6] = test system: LL/2 tumours; test: LL/2 tumour vasculature; assay type: in vivo, mouse; settings: wild type mice, 50 mg per kg
Description: B16/F0 and LL/2 […] tumour cell lines were grafted into wild type and Lrg1 knockout mice.

[7] = test system: B16-F0 tumours; test: B16-F0 tumour, 15C4 with cisplatin; assay type: in vivo, mouse; settings: vs IgG and cisplatin
Description: The adherent cell line B16-F0 was harvested and a single-cell suspension of 1×10^6 cells in 100 μl PBS was injected subcutaneously into the lower back of C57B1/6 male mice. Treatment with 15C4 or IgG was started after three days at 50 mg/kg by intraperitoneal injections, and repeated every 3 days. Suboptimal doses of Cisplatin (2.5 mg/kg) were administered to mice bearing tumours with an average size of 0.5 cm^3 every other day by intraperitoneal injections. Tumours were measured with callipers every other day and volume was calculated using the formula: V=(4/3)×π×(L/2)×(W/2)×(H/2).
Cisplatin and IgG or 15C4 treated tumours were immersion fixed in 4% PFA overnight at 4° C. and then immersed in 30% sucrose overnight at 4° C. Tumour tissue was then OCT embedded and frozen for sectioning (40 μm). TUNEL assay was performed using an ApopTag in situ apoptosis detection kit according to manufacturers protocol (Merk Millipore, USA).
The DNA double strand break marker γ-H2AX was stained for in tumour sections, indicating cisplatin-induced DNA damage.

[8] = test system: lesions in RPE/Choroid of the JR5558 mouse; test: JR5558 mouse lesion formation; assay type: in vivo; settings: 50 mg/kg IP every 3 days from D14, eyes harvested D25, vs IgG
Description: 15C4 or IgG at 50 mg/kg was administered IP every 3 days from D14. Eyes were harvested on D25 and RPE/Choroid stained with Collagen IV. The number of lesions was counted and data quantified for the two groups.

B1: 15C4: mouse monoclonal antibody against human Lrg1, VH SEQ ID NO: 1, VL SEQ ID NO: 2 (antibody, V domains shown)
VH: QVQLQQSGDEVVRPGSSVKISCKASGYTFSGYWMNWVKQRPGQGLQWIGQIYPGDGDTNYNGKFKGKATLTADKSSSTAYMQLSTLTSEDSAIYFCARSITTVVLDYWGQGTTLTVSS
VL: DIVLTQSPVSLAVSLGQRATISCRASQSVSTSGYSFMHWYQQKPGQPPKFLIKYASNLESGVPARFSGSGSGTDFTLNIHPVEEEDTATYYCQHSWEMPLTFGAGTKLELK
modifications: 15C4 Variable Heavy Chain; 15C4 Variable light chain
B1 was tested, and the “cross-reactivity with rodent Lrg1” value [1] was “None of antibodies 4H2, 3A11 or 15C4 exhibited strong cross-reactivity with rodent Lrg1”, the “affinity for human Lrg1 (in words)” value ([2]; Biacore) was “affinity in the picomolar range; also recorded: bound with especially high affinity; also recorded: very high affinity; also recorded: much higher affinity for human Lrg1” and the Ka ([2]; human Lrg1 immobilized on chip, mAbs at 20-100 nM) was 1.10E+05. For the same molecule, the “dissociation rate constant (kd)” value ([2]; rate constant column beside Ka, human Lrg1 immobilized on chip, mAbs at 20-100 nM) was 1.40E−07, the Kd ([2]; text summary of Biacore data, read-out: binding affinities for human Lrg1) was 1.2 pM and the “inhibition of angiogenesis (in words)” value [3] was “inhibited angiogenesis”. For the same molecule, the inhibition of angiogenesis ([3]; normalised to PBS control, 0.1 µM) was ~40% and > 25%, the “recognition of Lrg1 band on western blot” value [4] was “strongly recognise a single band of Lrg1 at 50 kD in the conditioned medium and vitreous” and the “endothelial and pericyte co-localisation” value ([5]; C57BL6 mice, CD31 with αSMA or NG2, vs IgG) was “increases endothelial and pericyte co-localisation”. For the same molecule, the “small vessels / distribution of vessel sizes (CD31)” value ([5]; C57Bl/6 mice, 50 mg/kg IP every 3 days, vs IgG controls) was “Fewer small vessels”, the “replication of Lrg1 knockout tumour vessel phenotype” value ([5]; wild type mice, 50 mg per kg) was “drives normalisation of tumour vessels; also recorded: These results were mimicked; also recorded: blood vessels are more functional and mature” and the “replication of Lrg1 knockout tumour vessel phenotype” value [6] was “These results were mimicked”. For the same molecule, the tumor growth ([7]; 15C4 50 mg/kg IP every 3 days in combination with cisplatin 2.5 mg/kg) was “significant reduction in tumor growth”, the “apoptosis (TUNEL)” value ([7]; in combination with cisplatin) was “Significantly more apoptosis” and the “nuclei with γ-H2AX foci” value ([7]; in combination with cisplatin) was “Significantly more nuclei with γ-H2AX foci”. The number of lesions [8] was “reduces lesion formation; also recorded: significantly fewer lesions”.
